The values that follow come from patent publication US20110229908A1.

Assay [1] deals with BJ kappa Bo (human). Briefly: haemagglutination of sheep RBC coated with BJ kappa Bo.
The target of assay [2] is BJ kappa Ke (human). Briefly: haemagglutination of sheep RBC coated with BJ kappa Ke.

B1: monoclonal antibody 1B6 (antibody, mouse IgG1, V domains shown)
VH: RQFPGNKLEWMGYINYSGITSYNPSLKSRFSITRDTSKNQFFLQLNSVTTEDTATYYCASWYYGNWYFDVWGAGTTVTVSS
VL: DIQMTQSPASLSVSVGETVTITCRASENIYSNLAWYQQKQGNSPQLLVYAATNLADGVPSRFSGSGSGTQYSLKINSLQSEDFGNYYCQHFWGTPWTFGGGTKLEIKR
B1: in assay [1], the MAb dilution used against coated red cells turned out to be 1e-05 dilution.

B2: monoclonal antibody KA1 (antibody, V domains shown)
VH: DVQLQESGPGLVNPSQSLSLTCTVTGYSITGDYAWNWIRQFPGNKLEWMGYISYSGLTSYNPSLKSRISITRDTSKNQFFLQLNSVATEDTATYYCTSFYYGYWYFDVWGAGTTVTVSS
VL: DIQMTQSPASLSASVGETVTITCRASENIYSFLTWYLQKQGKSPQLLVNNAKTLAEGVPSRFSGSGSGSQFSLKINSLQPEDFGTYYCQHHYGTPYTFGGGTKLEIKR
On to B2, for which the MAb dilution used against coated red cells in assay [2] is 1e-05 dilution.
